Test results from US20100204091A1 (YEDA RESEARCH AND DEVELOPMENT, published 2010).
No end group written: not given here.

Assays:
[1] = target: T1, FLAG tagged TRAF2 (UniProt Q12933 1-501); experiment: in vitro incubation of eluted FLAG TRAF2 with bacterial GST tagged SIVA2, anti-FLAG IP, anti SIVA blot
T1 construct: For in vitro assays purified on anti-FLAG M2 beads and eluted with FLAG peptide; also called FLAG-TRAF2
T1 sequence (looked up): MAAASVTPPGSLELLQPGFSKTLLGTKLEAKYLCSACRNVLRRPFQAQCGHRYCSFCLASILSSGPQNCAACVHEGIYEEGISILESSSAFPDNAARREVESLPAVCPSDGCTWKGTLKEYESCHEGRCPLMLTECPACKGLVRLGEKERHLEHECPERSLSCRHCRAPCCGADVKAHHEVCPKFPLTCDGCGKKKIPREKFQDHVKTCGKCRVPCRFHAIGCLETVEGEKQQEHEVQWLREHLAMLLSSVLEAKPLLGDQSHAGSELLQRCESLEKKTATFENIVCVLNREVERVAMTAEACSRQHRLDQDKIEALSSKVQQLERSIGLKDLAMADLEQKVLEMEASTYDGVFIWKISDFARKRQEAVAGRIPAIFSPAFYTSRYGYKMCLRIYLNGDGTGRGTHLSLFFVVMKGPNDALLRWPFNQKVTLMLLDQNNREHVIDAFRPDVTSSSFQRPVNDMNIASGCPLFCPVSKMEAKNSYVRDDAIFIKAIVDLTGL
Protocol: (§1) In order to explore whether TRAF2 binds to SIVA2, FLAG tagged TRAF2 was immuno-precipitated from transfected […] cells using anti-FLAG M2 beads. TRAF2 was eluted from the beads using FLAG peptide. The eluted FLAG tagged TRAF2 was incubated with recombinant (bacterially expressed) GST tagged SIVA2 or GST tagged ring finger mutant SIVA2 at 30° C. for one hour in a volume of 50 μl of buffer (30 mM HEPES, pH 7.6, 5 mM MgCl2, 0.2 mM DTT). Next, the binding mix was diluted to 1 ml to attain the following composition −30 mM HEPES, 5 mM MgCl2, 0.2 mM DTT, 150 mM NaCl, 1% Triton X100 and 1 mM EDTA. Immunoprecipitation was carried out with anti-FLAG for TRAF2 and Western blotting analysis was carried out with anti SIVA to detect coprecipitating SIVA. […] The latter was confirmed in the following experiment. HEK 293T cells were co-transfected with 12 ug of HIS-SIVA2 or deletions of SIVA2 lacking the ring finger (SIVA2 1-58 and SIVA 1-81) and FLAG-TRAF2 by calcium phosphate method. 24 hours post transfection; cells were harvested and lysed in 1% Triton containing lysis buffer. TRAF2 was immunoprecipitated using anti FLAG-M2 beads and coprecipitated SIVA2 was probed by Western blotting using anti HIS antibody. Total lysis in FIG. 11D show the expression levels of the proteins. […] (FIG. 11D).

[2] = target: T2, NF-κB-inducing kinase, NIK, (MAP3K14) (human, UniProt Q99558 1-947); experiment: yeast two-hybrid, human bone-marrow library, NIK as bait
T2 construct: in yeast two-hybrid used as bait fusion; also called myc-NIK; wild type NIK
Protocol: Yeast two-hybrid screening: The system used for screening was the Matchmaker version III (clontech). The prey was pre-transformed human bone marrow library (cat# HY4053AH) that offers high stringent quadruple drop out (QDO) selection along with a-gal assay. Clones growing on plates without LEU, TRP, HIS and ADE were reconfirmed by a-gal assay, which is much more specific than the usual, often leaky, b-gal assay. Plasmids of the positive clones were prepared as follows. Single clones were inoculated into QDO liquid broth and grown overnight at 37° C. Cells were pelleted at 10,000 g and resuspended in 200 μl of buffer containing 2% Triton X-100, 1% SDS, 100 mM NaCl, 10 mM Tris pH8.0, and 1 mM EDTA. The lysates were vortexed for 2 min after adding 200 μl of phenol: chloroform: isoamyl alcohol (25:24:1) and 0.3 g of 600 microns acid washed glass beads (Sigma). Supernatant was collected by centrifugation at 12,000 g and the DNA was precipitated by sodium acetate/ethanol precipitation method (Sambrook et al., 1989). Encoded inserts from the plasmids were amplified by PCR with the primers specific for the library vector pACT2. For further biochemical analysis of individual clones, the amplicons were directly cloned into the N-terminally HIS tagged mammalian expression vector pcDNA3.1 (Invitrogen).

[3] = target: T2, NF-κB-inducing kinase, NIK, (MAP3K14); experiment: co-immunoprecipitation from transfected cells (deletion analysis)
[4] = target: T1, FLAG tagged TRAF2; experiment: co-immunoprecipitation with anti FLAG-M2 beads from transfected HEK 293T cells, anti HIS blot
Protocol: as §1

T2 sequence (Q99558 whole entry, the tested form may be a part): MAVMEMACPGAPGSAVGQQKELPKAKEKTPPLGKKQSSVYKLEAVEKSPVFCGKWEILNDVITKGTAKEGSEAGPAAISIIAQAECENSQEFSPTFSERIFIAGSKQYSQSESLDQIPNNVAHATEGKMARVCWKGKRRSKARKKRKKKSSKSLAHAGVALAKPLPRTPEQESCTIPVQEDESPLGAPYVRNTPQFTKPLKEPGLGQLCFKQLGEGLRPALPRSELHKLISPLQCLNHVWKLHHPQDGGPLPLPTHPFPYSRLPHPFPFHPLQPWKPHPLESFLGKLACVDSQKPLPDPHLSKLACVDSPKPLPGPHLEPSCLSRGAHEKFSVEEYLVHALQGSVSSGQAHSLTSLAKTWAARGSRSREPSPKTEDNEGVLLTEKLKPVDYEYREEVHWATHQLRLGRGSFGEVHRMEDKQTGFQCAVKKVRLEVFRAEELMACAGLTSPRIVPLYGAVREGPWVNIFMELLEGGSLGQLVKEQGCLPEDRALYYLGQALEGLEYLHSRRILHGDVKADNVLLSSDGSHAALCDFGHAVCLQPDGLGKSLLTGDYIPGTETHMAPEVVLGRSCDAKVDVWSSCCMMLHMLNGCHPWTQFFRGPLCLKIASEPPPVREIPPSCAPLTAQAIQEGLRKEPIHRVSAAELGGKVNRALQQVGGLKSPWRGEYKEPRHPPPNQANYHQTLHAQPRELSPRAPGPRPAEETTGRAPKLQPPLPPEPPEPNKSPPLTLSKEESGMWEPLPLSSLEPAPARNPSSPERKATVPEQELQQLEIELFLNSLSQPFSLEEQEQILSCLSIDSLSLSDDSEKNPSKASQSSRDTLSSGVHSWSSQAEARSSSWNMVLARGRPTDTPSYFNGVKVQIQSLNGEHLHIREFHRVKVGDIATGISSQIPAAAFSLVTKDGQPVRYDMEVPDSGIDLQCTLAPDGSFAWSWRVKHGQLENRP

B1: GST-SIVA2 (bacterially expressed GST tagged SIVA2) (other)
chain: MPKRSCPFADVAPLQLKVRVSQRELSRGVCAERYSQEVFDPSGVASIACSSCVRAVDGKAVCGQCERALCGQCVRTCWGCGSVACTLCGLVDCSDMYEKVLCTSCAMFET
notes: Cloned into pGEX and expressed in BL-21 cells; also called recombinant GST-SIVA; recombinant SIVA2; not shown: glutathione S-transferase tag of the pGEX vector
B1: binds [1].

B2: SIVA-C (C-terminal part of SIVA, amino acids 123-175 in SIVA1 or 58-110 in SIVA2) (other)
chain: KAVCGQCERALCGQCVRTCWGCGSVACTLCGLVDCSDMYEKVLCTSCAMFET
notes: Prey fragment from a human bone marrow two-hybrid library; in mammalian cells HIS tagged; also called SIVA-C terminus; C-terminal fragment of SIVA
B2: binds [2].

B3: SIVA2 1-58 (other)
chain: MPKRSCPFADVAPLQLKVRVSQRELSRGVCAERYSQEVFDPSGVASIACSSCVRAVDG
modifications: cysteine pairing not given here; also: His tag, sequence and position not given here
notes: HIS tagged deletion mutant lacking ring and zinc fingers; also called SIVA 1-58; SIVA2 N-terminus
B3: no binding [3]; no binding [4].
